Source: article PMC6072106

Columns and labels:
Conditions in all cases: EMSA: 24 mM Tris/HCl pH 7.5, 50 mM KCl, 10 mM MgCl2, 1 mM CaCl2, 0.1 mM EDTA, 5% glycerol, 0.05 ug/ul BSA, 0.05 ug/ul salmon sperm DNA, 20 ul, 20 min room …
Fis [1] = target: T1, Fis (UniProt Q88DK4); assay: DNase I footprinting
T1 sequence: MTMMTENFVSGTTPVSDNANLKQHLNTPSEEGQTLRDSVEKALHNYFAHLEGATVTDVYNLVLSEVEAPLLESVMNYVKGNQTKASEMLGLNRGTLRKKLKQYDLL

Fis [2] = target: T1, Fis; assay: EMSA with LF2 competition
Fis [3] = target: T1, Fis; assay: EMSA
Fis [4] = target: T1, Fis; assay: competition

Sequence | binding (Fis [1]) | binding (Fis [2]) | binding (Fis [3]) | binding (Fis [4])
AGGATCCAATCGCCAGATGAACTTTACAAGGCGCAGAACAGCGAAATTCGAGCGCAGCAGTGGCACCGACCTTAATTATCATTACAGGGTTTGCAATTCGTTACCCGCTGCAAGAAACATAATTAACAAAACCGCGCGTAATGCCCGAATTTCAAGGCTCTCAGCCAGTTACGAACG (double strand) [Fis-nuo3-Fis-nuo4-mut] | binds more weakly | binds more weakly | – | –
AGGATCCAATCGCCAGATGAACTTTACAAGGCGCAGAACAGCGAAATTCGAGCGCAGCAGTTCAAATGATATTAATTATCATTACAGGGTTTGCAATTCGTTACCCGCTGCAAGAAACATAAGTCAGCCAACCGCGCGTAATGCCCGAATTTCAAGGCTCTCAGCCAGTTACGAACG (double strand) [Fis-nuo3-mut-Fis-nuo4] | binds more weakly | binds more weakly | – | –
AGGATCCAATCGCCAGATGAACTTTACAAGGCGCAGAACAGCGAAATTCGAGCGCAGCAGTTCAAATGATATTAATTATCATTACAGGGTTTGCAATTCGTTACCCGCTGCAAGAAACATAATTAACAAAACCGCGCGTAATGCCCGAATTTCAAGGCTCTCAGCCAGTTACGAACG (double strand) [nuoA promoter Fis-nuo3-Fis-nuo4 (170 bp)] | binds | – | binds | –
CGTGGGGTTATGCCGAGATAAGGCAAAAATTAGGACATTCGTTCTGTAAATATATGATTTAAAAGGTTATTCGAGAGGCCGTGGCTTGCTGGTCATCCACCGTCTGAGCTCAGC (double strand) [RF1] | – | – | – | no binding
GCGCGTAATGCCCGAATTTCAAGGCTCTCAGCCAGTTACGAACGTTTGTCCTACCTAATCCTACGAATAAATTTGCGACAGAAATTTTACTTGCACCAGGTTTACCCATAAAATCAGCGCGATTGATCCGGCTGCGACATTTGGTCACTG (double strand) [Fis-nuo1-Fis-nuo2-mut] | binds more weakly | binds more weakly | – | –
GCGCGTAATGCCCGAATTTCAAGGCTCTCAGCCAGTTACGAACGTTTTTTGTACTTAATCCTACGAATAAATTTGCGACAGAAATTTTACTTGCACCAGGTTTACCCATAAAATCAGCGCGATTGATCCGGCTGCGACATTTGGTCACTG (double strand) [nuoA promoter Fis-nuo1-Fis-nuo2 (150 bp)] | binds | – | binds | –
GCGCGTAATGCCCGAATTTCAAGGCTCTCAGCCAGTTACGAACGTTTTTTGTACTTAATCCTACGAATAAGGTTGCGAGTCGAATTTTACTTGCACCAGGTTTACCCATAAAATCAGCGCGATTGATCCGGCTGCGACATTTGGTCACTG (double strand) [Fis-nuo1-mut-Fis-nuo2] | binds more weakly | – | – | –
